Measured values reported in US20140120557A1.

How the values were obtained:
[1] = biological target: 5C.C7 TCR on 5C.C7 T cell blasts (mouse) (UniProt A2KF29); test: flow cytometry; 5C.C7 T cell blasts, one hour at room temperature after staining
[2] = biological target: OT-1 TCR on naïve OT-1 T cells (mouse); test: flow cytometry; naïve OT-1 T cells, pMHC 1 µM, UV photocrosslinking, PE-SAv
[3] = biological target: 5C.C7 TCR on 5C.C7 T cell blasts (mouse) (UniProt A2KF29); test: cell-based or functional assay
[4] = biological target: 5C.C7 TCR on 5C.C7 T cell blasts (mouse) (UniProt A2KF29); test: flow cytometry; 2 µM BioMCC(ASA)-I-Ek photocrosslinked to 5C.C7 T cell blasts, against about 38,000 TCRs per T cell
[5] = biological target: 5C.C7 TCR (as measured by surface plasmon resonance) (mouse); test: SPR

Sequence of 102S-I-Ek (P04224 26-216): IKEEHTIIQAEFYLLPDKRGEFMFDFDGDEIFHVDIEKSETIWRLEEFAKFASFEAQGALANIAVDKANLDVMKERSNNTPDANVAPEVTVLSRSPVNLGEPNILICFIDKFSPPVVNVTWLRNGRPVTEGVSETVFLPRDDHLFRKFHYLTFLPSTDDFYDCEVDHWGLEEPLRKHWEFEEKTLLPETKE
Sequence of OVA(ASA)-Kb (P01901 22-305): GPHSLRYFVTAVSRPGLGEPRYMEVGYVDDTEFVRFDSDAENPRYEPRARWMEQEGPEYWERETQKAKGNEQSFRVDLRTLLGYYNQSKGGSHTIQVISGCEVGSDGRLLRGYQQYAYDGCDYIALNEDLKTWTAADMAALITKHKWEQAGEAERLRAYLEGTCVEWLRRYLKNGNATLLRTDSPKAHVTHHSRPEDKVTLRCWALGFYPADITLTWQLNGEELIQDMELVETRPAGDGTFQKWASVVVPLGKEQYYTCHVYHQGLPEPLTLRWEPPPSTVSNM
Sequence of MCC(Cy5)-I-Ek (P04224 26-216): as the sequence (P04224 26-216) above
Sequence of PE-conjugated MCC-I-Ek tetramer (P04224 26-216): as above

## PE-conjugated MCC-I-Ek tetramer (from UniProt P04224 26-216) (peptide-MHC)
[1]
  decrease of the staining signal after one hour at room temperature: 50%

## OVA(ASA)-Kb (from UniProt P01901 22-305) (peptide-MHC)
[2]
  fold efficiency of staining against the null SIAAFASL(ASA)-Kb monomer: > 10 fold

## BioMCC(ASA)-I-Ek (from UniProt P04224 26-216) (peptide-MHC)
[3]
  duration of calcium flux on planar lipid bilayer with ICAM-1 and B7-1: > 10 min
  duration of calcium flux on planar lipid bilayer without ICAM-1 and B7-1: 3 min
  peak of fura-2 excitation ratio (340 nm/380 nm) above the baseline; 5100 or 7900 photocrosslinked pMHCs per cell: 2.5 fold
[1]
  decrease of the staining signal after one hour at room temperature: 5%
[4]
  percent of the total TCRs on a T cell surface permanently bound: 16%

## 102S-I-Ek (from UniProt P04224 26-216) (peptide-MHC)
[5]
  Kd: 206 µM
  t1/2: 0.83 s

## MCC(Cy5)-I-Ek (from UniProt P04224 26-216) (peptide-MHC)
[3]
  peak of fura-2 excitation ratio (340 nm/380 nm) above the baseline; 6100 standard agonist pMHCs per cell: 2.5 fold
